From the supplement of paper PMC7877785 come the findings set out here.

The nature of this data set: self-splicing fitness, log relative to wild type (ln ratio); higher = more splicing; Tetrahymena group I intron in knt gene, E. coli kanamycin selection, DiMSum; sequences stand for … in CUCUCU…GGAGGGAAAAGUUAUCAGGCAUGCACCUGGUAGCUAGUCUUUAAACCAAUAGAUUGCAUCGGUUUAAAAGGCAAGACCGUCAAAUUGCGGGAAAGGGGUCAACAGCCGUUCAGUACCAAGUCUCAGGGGAAACUUUGAGAUGGCCUUGCAAAGGGUAUGGUAAUAAGCUGACGGACAUGGUCCUAACCACGCAGCCAAGUCCUAAGUCAACAGAUCUUCUGUUGAUAUGGAUGCAGUUCACAGACUAAAUGUCGGUCGGGGAAGAUGUAUUCUUCUCAUAAGAUAUAGUCGGACCUCUCCUUAAUGGGAGCUAGCGGAUGAAGUGAUGCAACACUGGAGCCGCUGGGAACUAAUUUGUAUGCGAAAGUAUAUUGAUUAGUUUUGGAGUACUCGUGGUCG
The essentials:
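Pooled colonies went to amplicon sequencing on an Illumina HiSeq 2500 after six replicate transformations. The plates were LB agar with 100 μg/mL carbenicillin, 50 μM IPTG and 0.2% rhamnose, with or without 25 μg/mL kanamycin, incubated overnight at 37°C or 30°C. The E. coli BL21(DE3) library had all eight P1ex-region intron nucleotides randomised, the intron placed in the knt kanamycin-resistance gene on pET-22b(+). DiMSum fitness is the error-weighted combination of replicate fold changes, kanamycin against none, normalised to wild type.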

± gives the uncertainty stated by the source.

On to GACAAGCAAUAUUACGCAGU, for which the “self-splicing fitness (ln)” value is -3.47 ± 0.35 (30 °C) and -1.85 ± 0.22 (37 °C).
For UGGGAGCAAUAUUACGAGUG, in that order: -2.24 ± 0.31 and -0.927 ± 0.28.
Consider ACGUAGCAAUAUUACGCCGC, for which the “self-splicing fitness (ln)” value (30 °C) was -3.7 ± 0.46.
Turning to UGCGAGCAAUAUUACGCGUU, the “self-splicing fitness (ln)” value runs as follows: (30 °C) -3.38 ± 0.27; (37 °C) -1.39 ± 0.18.
For AUAAAGCAAUAUUACGGGCG, in that order: -0.028 ± 0.097 and -0.567 ± 0.1.
For CCGCAGCAAUAUUACGGUUC, in that order: -3.51 ± 0.28 and -3.67 ± 0.37.
As to UUCAAGCAAUAUUACGAGAC, the “self-splicing fitness (ln)” value by setting is: (30 °C) -3.86 ± 0.23; (37 °C) -2.23 ± 0.19.
For GCCCAGCAAUAUUACGUUCA, in that order: -2.45 ± 0.16 and -0.504 ± 0.11.
On the same counts, the results for GGGGAGCAAUAUUACGUGUA are -3.7 ± 0.31 and -2.23 ± 0.22.
For GCCCAGCAAUAUUACGGAUU, in that order: 0.0408 ± 0.057 and -0.0391 ± 0.08.
On to ACUAAGCAAUAUUACGUCAU, for which the “self-splicing fitness (ln)” value is, setting by setting: (30 °C) -3.64 ± 0.16; (37 °C) -2.28 ± 0.15.
On the same counts, the results for AGUAAGCAAUAUUACGCCGG are -2.45 ± 0.39 and -1.99 ± 0.34.
For GACCAGCAAUAUUACGACUA, in that order: -0.158 ± 0.056 and -0.0882 ± 0.062.
Consider GAAUAGCAAUAUUACGUCGU, for which the “self-splicing fitness (ln)” value runs as follows: (30 °C) -2 ± 0.12; (37 °C) -1.35 ± 0.14.
For GCGAAGCAAUAUUACGGGGA, in that order: -3.69 ± 0.23 and -3.12 ± 0.33.
For AAAGAGCAAUAUUACGCAUU, in that order: -3.61 ± 0.19 and -1.88 ± 0.21.
In the case of GCUGAGCAAUAUUACGCGUU, the “self-splicing fitness (ln)” value is, setting by setting: (30 °C) -2.22 ± 0.15; (37 °C) -1.73 ± 0.22.
For ACGUAGCAAUAUUACGUGCU, in that order: -1.94 ± 0.11 and -0.828 ± 0.12.
On the same counts, the results for GUCUAGCAAUAUUACGUUUA are -0.64 ± 0.12 and -1 ± 0.1.
For GUAGAGCAAUAUUACGCUAA, in that order: -0.515 ± 0.07 and -0.264 ± 0.089.
Regarding GAACAGCAAUAUUACGCCUU, the “self-splicing fitness (ln)” value (30 °C) was -0.755 ± 0.13 and the “self-splicing fitness (ln)” value (37 °C) amounted to 0.356 ± 0.14.
On the same counts, the results for GGACAGCAAUAUUACGACUG are -0.809 ± 0.12 and -0.232 ± 0.17.
On the same counts, the results for AGCAAGCAAUAUUACGCGAA are -2.39 ± 0.1 and -0.85 ± 0.099.
For UGCCAGCAAUAUUACGAACA, in that order: -0.458 ± 0.14 and 0.334 ± 0.17.
For the sequence GUAUAGCAAUAUUACGUGCG, the “self-splicing fitness (ln)” value is -1.4 ± 0.12 (30 °C) and -0.66 ± 0.15 (37 °C).
On the same counts, the results for GCGUAGCAAUAUUACGGAGA are -2.63 ± 0.21 and -1.87 ± 0.23.
UAGAAGCAAUAUUACGGCCU: the “self-splicing fitness (ln)” value (30 °C) was -0.838 ± 0.12 and the “self-splicing fitness (ln)” value (37 °C) is -1.15 ± 0.15.
On to AUACAGCAAUAUUACGUUAU, for which the “self-splicing fitness (ln)” value reads like this: (30 °C) -3.44 ± 0.13; (37 °C) -2.04 ± 0.1.
For the sequence UGAAAGCAAUAUUACGCCUG, the “self-splicing fitness (ln)” value was -0.546 ± 0.11 (30 °C) and -0.244 ± 0.12 (37 °C).
On the same counts, the results for GGAUAGCAAUAUUACGCUGG are -2.25 ± 0.15 and -1.05 ± 0.18.
Turning to AGUCAGCAAUAUUACGGCCA, the “self-splicing fitness (ln)” value runs as follows: (30 °C) -0.485 ± 0.14; (37 °C) -0.0722 ± 0.2.
Regarding GAGUAGCAAUAUUACGGAUG, the “self-splicing fitness (ln)” value (30 °C) was -1.42 ± 0.17.
Turning to GGGGAGCAAUAUUACGUUAU, the “self-splicing fitness (ln)” value was -3.58 ± 0.18 (30 °C) and -2.14 ± 0.16 (37 °C).
For GUAGAGCAAUAUUACGGAUG, in that order: -3.96 ± 0.43 and -2.08 ± 0.36.
As for UUCGAGCAAUAUUACGAAAC, for the setting “37 °C”, the “self-splicing fitness (ln)” value was -1.41 ± 0.43.
Consider CGAUAGCAAUAUUACGGGUA, for which the “self-splicing fitness (ln)” value (30 °C) is -3.87 ± 0.4 and the “self-splicing fitness (ln)” value (37 °C) was -2.64 ± 0.2.
On the same counts, the results for CUAAAGCAAUAUUACGUAAC are -2.86 ± 0.12 and -1.62 ± 0.12.
For ACAAAGCAAUAUUACGACCG, in that order: -0.343 ± 0.1 and 0.578 ± 0.13.
Take GGCAAGCAAUAUUACGCGGA: the “self-splicing fitness (ln)” value by setting is: (30 °C) -0.732 ± 0.095; (37 °C) -0.268 ± 0.094.
With CCAGAGCAAUAUUACGUAAC, the “self-splicing fitness (ln)” value is -3.56 ± 0.37 (30 °C) and -1.96 ± 0.32 (37 °C).
For CGAUAGCAAUAUUACGACGA, in that order: -1.5 ± 0.17 and -0.547 ± 0.15.
For UUCAAGCAAUAUUACGGCUC, in that order: -1.68 ± 0.17 and -0.923 ± 0.23.
On the same counts, the results for UAUUAGCAAUAUUACGGGUC are -2.14 ± 0.37 and -2.29 ± 0.35.
On to UGUAAGCAAUAUUACGGCUU, for which the “self-splicing fitness (ln)” value runs as follows: (30 °C) -1.01 ± 0.12; (37 °C) -1.15 ± 0.15.
For GCUUAGCAAUAUUACGCAAG, the “self-splicing fitness (ln)” value (37 °C) was -2.44 ± 0.34.
On to CAGAAGCAAUAUUACGGACU, for which the “self-splicing fitness (ln)” value is, setting by setting: (30 °C) -2.88 ± 0.27; (37 °C) -0.24 ± 0.31.
On the same counts, the results for UGUAAGCAAUAUUACGUUAC are -2.91 ± 0.22 and -3.12 ± 0.37.
As to GCACAGCAAUAUUACGUCCU, the “self-splicing fitness (ln)” value was -0.289 ± 0.072 (30 °C) and 0.244 ± 0.094 (37 °C).
On the same counts, the results for GAUAAGCAAUAUUACGGAAA are -2.35 ± 0.41 and -1.67 ± 0.29.
For GCCUAGCAAUAUUACGGGCU, in that order: -3.65 ± 0.23 and -2.07 ± 0.24.
For CUGUAGCAAUAUUACGGAAU, in that order: -2.18 ± 0.13 and -3.57 ± 0.32.
On to CUGUAGCAAUAUUACGGACG, for which the “self-splicing fitness (ln)” value runs as follows: (30 °C) -1.53 ± 0.12; (37 °C) -0.319 ± 0.15.
With AUCGAGCAAUAUUACGAUUC, the “self-splicing fitness (ln)” value (30 °C) is -2.98 ± 0.34.
Regarding CGCCAGCAAUAUUACGCGGA, the “self-splicing fitness (ln)” value reads like this: (30 °C) -2.91 ± 0.2; (37 °C) -1.99 ± 0.16.
For UAAUAGCAAUAUUACGUCGG, in that order: -2.21 ± 0.11 and -1.49 ± 0.14.
Take CUCGAGCAAUAUUACGGCCU: the “self-splicing fitness (ln)” value (37 °C) was -1.37 ± 0.36.
Regarding CGCGAGCAAUAUUACGAUCG, the “self-splicing fitness (ln)” value reads like this: (30 °C) -2.08 ± 0.11; (37 °C) -2.66 ± 0.29.
For GAUCAGCAAUAUUACGCGAA, the “self-splicing fitness (ln)” value runs as follows: (30 °C) -1.49 ± 0.086; (37 °C) -0.586 ± 0.09.
On the same counts, the results for ACCCAGCAAUAUUACGGGUA are -2.54 ± 0.11 and -1.66 ± 0.084.
In the case of UAAAAGCAAUAUUACGCGGC, the “self-splicing fitness (ln)” value (30 °C) is -3.63 ± 0.47 and the “self-splicing fitness (ln)” value (37 °C) was -2.1 ± 0.31.
For the sequence UCUAAGCAAUAUUACGAGUC, the “self-splicing fitness (ln)” value was -3.41 ± 0.3 (30 °C) and -2.93 ± 0.3 (37 °C).
For GUUAAGCAAUAUUACGUGGA, in that order: -2.84 ± 0.15 and -2.31 ± 0.15.
For the sequence AUCGAGCAAUAUUACGGGCC, the “self-splicing fitness (ln)” value is -1.92 ± 0.27 (30 °C) and -2.19 ± 0.37 (37 °C).
For GUCUAGCAAUAUUACGCGAG, in that order: -1.08 ± 0.13 and 0.182 ± 0.13.
On the same counts, the results for GAACAGCAAUAUUACGAAUA are -1.48 ± 0.098 and -0.755 ± 0.11.
On to GAUUAGCAAUAUUACGCAUC, for which the “self-splicing fitness (ln)” value (30 °C) was -2.32 ± 0.25.
UAUCAGCAAUAUUACGCUGC: the “self-splicing fitness (ln)” value is -2.59 ± 0.35 (30 °C) and -0.822 ± 0.24 (37 °C).
With GUCGAGCAAUAUUACGCACG, where the note is “30 °C”, the “self-splicing fitness (ln)” value was -1 ± 0.28.
Take GGGGAGCAAUAUUACGAAUU: the “self-splicing fitness (ln)” value by setting is: (30 °C) -1.24 ± 0.19; (37 °C) -0.992 ± 0.25.
For CAGCAGCAAUAUUACGCUGG, in that order: -2.69 ± 0.15 and -2.43 ± 0.17.
On the same counts, the results for UUCAAGCAAUAUUACGGAUA are -1.18 ± 0.14 and -0.384 ± 0.12.
On the same counts, the results for AACUAGCAAUAUUACGGGUA are -0.761 ± 0.072 and -0.0817 ± 0.07.
As for AUUUAGCAAUAUUACGGAUG, the “self-splicing fitness (ln)” value is, setting by setting: (30 °C) -1.94 ± 0.14; (37 °C) -1.91 ± 0.2.
For ACGAAGCAAUAUUACGUCUC, in that order: -3.62 ± 0.12 and -1.55 ± 0.087.
Turning to AUCGAGCAAUAUUACGGCCG, the “self-splicing fitness (ln)” value is -1.92 ± 0.22 (30 °C) and -0.981 ± 0.2 (37 °C).
For GUUGAGCAAUAUUACGAUCA, in that order: -2.74 ± 0.37 and 0.523 ± 0.28.
On the same counts, the results for CCACAGCAAUAUUACGAGAG are -2.41 ± 0.067 and -1.25 ± 0.065.
